Laboratory results reported in patent publication US20140057317A1 (Harvard, published 2014).

Tests used:
[1] = biological target: T1, human CD154 tagged with the LPETG sequence at its C terminus (human, UniProt P29965 1-261); test: cell-based or functional assay
T1 sequence: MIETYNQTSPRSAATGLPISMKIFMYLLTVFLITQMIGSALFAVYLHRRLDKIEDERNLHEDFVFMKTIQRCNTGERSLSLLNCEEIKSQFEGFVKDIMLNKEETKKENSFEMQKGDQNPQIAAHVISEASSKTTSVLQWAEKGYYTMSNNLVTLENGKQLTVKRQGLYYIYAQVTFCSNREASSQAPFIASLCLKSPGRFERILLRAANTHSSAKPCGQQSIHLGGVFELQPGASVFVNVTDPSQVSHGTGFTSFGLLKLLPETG

[2] = biological target: T2, Abz-LPETGK(Dnp)-CONH2
T2 chain: LPETGK

[3] = biological target: T3, Gly-Gly-Gly-COOH (GGG)
T3 chain: GGG

[4] = biological target: T4, LPETG (SEQ ID NO: 32) substrate
T4 chain: LPETG

[5] = biological target: LPESG (SEQ ID NO: 38) substrate

B1: wild type S. aureus sortase A (enzyme)
chain: MQAKPQIPKDKSKVAGYIEIPDADIKEPVYPGPATPEQLNRGVSFAEENESLDDQNISIAGHTFIDRPNYQFTNLKAAKKGSMVYFKVGNETRKYKMTSIRDVKPTDVEVLDEQKGKDKQLTLITCDDYNEKTGVWEKRKIFVATEVKLEHHHHHH
[1]
  fluorescence of live HeLa cells labeled with GGGYK-biotin over background without enzyme, flow cytometry: ≤ 2.8 fold
[2]
  kcat/Km LPETG: 200 M⁻¹ s⁻¹

B2: P94S/D165A (clone 4.3) (protein)
chain: MQAKPQIPKDKSKVAGYIEIPDADIKEPVYPGPATSEQLNRGVSFAEENESLDDQNISIAGHTFIDRPNYQFTNLKAAKKGSMVYFKVGNETRKYKMTSIRDVKPTAVEVLDEQKGKDKQLTLITCDDYNEKTGVWEKRKIFVATEVKLEHHHHHH
[2]
  fold enhancement in catalytic efficiency compared to wild type: an approximately 15-fold enhancement in catalytic efficiency at using the LPETG (SEQ ID NO: 32) substrate
  fold reduction in Km LPETG compared to wild type: a 5-7-fold reduction in Km LPETG
  kcat/Km LPETG: 2600 ± 100 M⁻¹ s⁻¹

B3: P94S/D160N/K196T srtA (enzyme)
chain: MQAKPQIPKDKSKVAGYIEIPDADIKEPVYPGPATSEQLNRGVSFAEENESLDDQNISIAGHTFIDRPNYQFTNLKAAKKGSMVYFKVGNETRKYKMTSIRNVKPTDVEVLDEQKGKDKQLTLITCDDYNEKTGVWETRKIFVATEVKLEHHHHHH
[1]
  median fluorescence (streptavidin-AlexaFluor594) of live HeLa cells labeled with GGGYK-biotin, flow cytometry: ≥ 30 fold
[3]
  fold improvement in Km GGG compared to the tetramutant: a 2.6-fold improvement in Km GGG
[2]
  fold increase in KM LPETG compared to the tetramutant: 3 fold
  kcat/Km LPETG: 8600 ± 1500 M⁻¹ s⁻¹

B4: srtA K196T (protein)
chain: MQAKPQIPKDKSKVAGYIEIPDADIKEPVYPGPATPEQLNRGVSFAEENESLDDQNISIAGHTFIDRPNYQFTNLKAAKKGSMVYFKVGNETRKYKMTSIRDVKPTDVEVLDEQKGKDKQLTLITCDDYNEKTGVWETRKIFVATEVKLEHHHHHH
[2]
  kcat/Km LPETG: 400 M⁻¹ s⁻¹

B5: D160N/K190E/K196T (clone 4.2) (protein)
chain: MQAKPQIPKDKSKVAGYIEIPDADIKEPVYPGPATPEQLNRGVSFAEENESLDDQNISIAGHTFIDRPNYQFTNLKAAKKGSMVYFKVGNETRKYKMTSIRNVKPTDVEVLDEQKGKDKQLTLITCDDYNEETGVWETRKIFVATEVKLEHHHHHH
[2]
  fold enhancement in catalytic efficiency compared to wild type: an approximately 15-fold enhancement in catalytic efficiency at using the LPETG (SEQ ID NO: 32) substrate
  fold reduction in Km LPETG compared to wild type: a 5-7-fold reduction in Km LPETG
  kcat/Km LPETG: 2400 ± 700 M⁻¹ s⁻¹

B6: srtA P94S (protein)
chain: MQAKPQIPKDKSKVAGYIEIPDADIKEPVYPGPATSEQLNRGVSFAEENESLDDQNISIAGHTFIDRPNYQFTNLKAAKKGSMVYFKVGNETRKYKMTSIRDVKPTDVEVLDEQKGKDKQLTLITCDDYNEKTGVWEKRKIFVATEVKLEHHHHHH
[2]
  kcat/Km LPETG: 600 M⁻¹ s⁻¹

B7: P94R/D160N/D165A/K190E/K196T srtA (protein)
chain: MQAKPQIPKDKSKVAGYIEIPDADIKEPVYPGPATREQLNRGVSFAEENESLDDQNISIAGHTFIDRPNYQFTNLKAAKKGSMVYFKVGNETRKYKMTSIRNVKPTAVEVLDEQKGKDKQLTLITCDDYNEETGVWETRKIFVATEVKLEHHHHHH
[3]
  fold higher Km GGG compared with wild type srtA: a 20-fold higher Km GGG
  fold improvement in Km GGG compared to the tetramutant: the Km GGG of this mutant improved by 1.8-fold
[2]
  Km LPETG (fit of the one-hour time course, FIG. 16): Km LPETG=245±5 µM
  fold change in KM LPETG compared to the tetramutant: the kcat and KM LPETG were not altered by more than a factor of 1.3-fold
  fold higher kcat/KM LPETG compared with wild type srtA: a 120-fold higher kcat/KM LPETG
  kcat/Km LPETG: 23000 ± 3000 M⁻¹ s⁻¹

B8: srtA D160N (protein)
chain: MQAKPQIPKDKSKVAGYIEIPDADIKEPVYPGPATPEQLNRGVSFAEENESLDDQNISIAGHTFIDRPNYQFTNLKAAKKGSMVYFKVGNETRKYKMTSIRNVKPTDVEVLDEQKGKDKQLTLITCDDYNEKTGVWEKRKIFVATEVKLEHHHHHH
[2]
  kcat/Km LPETG: 600 M⁻¹ s⁻¹

B9: srtA D165A (protein)
chain: MQAKPQIPKDKSKVAGYIEIPDADIKEPVYPGPATPEQLNRGVSFAEENESLDDQNISIAGHTFIDRPNYQFTNLKAAKKGSMVYFKVGNETRKYKMTSIRDVKPTAVEVLDEQKGKDKQLTLITCDDYNEKTGVWEKRKIFVATEVKLEHHHHHH
[2]
  kcat/Km LPETG: 700 M⁻¹ s⁻¹

B10: P94S/D160N/D165A sortase A (protein)
chain: MQAKPQIPKDKSKVAGYIEIPDADIKEPVYPGPATSEQLNRGVSFAEENESLDDQNISIAGHTFIDRPNYQFTNLKAAKKGSMVYFKVGNETRKYKMTSIRNVKPTAVEVLDEQKGKDKQLTLITCDDYNEKTGVWEKRKIFVATEVKLEHHHHHH
[3]
  fold improvement in Km GGG compared to the tetramutant: the Km GGG of this mutant improved by 2.7-fold
[2]
  fold change in KM LPETG compared to the tetramutant: KM LPETG were not altered by more than a factor of 3-fold
  kcat/Km LPETG: 7500 ± 300 M⁻¹ s⁻¹

B11: P94S/D160N/D165A/K196T sortase A (protein)
chain: MQAKPQIPKDKSKVAGYIEIPDADIKEPVYPGPATSEQLNRGVSFAEENESLDDQNISIAGHTFIDRPNYQFTNLKAAKKGSMVYFKVGNETRKYKMTSIRNVKPTAVEVLDEQKGKDKQLTLITCDDYNEKTGVWETRKIFVATEVKLEHHHHHH
[3]
  fold increase in Km GGG compared to wild type: a 30-fold increase in Km GGG for the sortase A tetramutant
[2]
  fold decrease in KM LPETG compared to wild type: The 50-fold decrease in KM LPETG of the tetramutant compared to wild type
  fold improved LPETG recognition compared to wild type: 45-fold improved LPETG (SEQ ID NO: 32) recognition
  fold improvement in kcat/Km LPETG compared to wild type: a 140-fold improvement in its ability to convert LPETG (SEQ ID NO: 32) (kcat/Km LPETG)
  kcat/Km LPETG: 28000 ± 7000 M⁻¹ s⁻¹

B12: Sortase 4S.4 (protein)
chain: QAKPQIPKDKSKVAGYIEIPDADIKELVYPGPATREQLSRGVSFTEENESLDDQNISITGHTSIGRPSYQFTNLRAAKKGSMVYFKVGNETRKYKMTSIRNVKPTAVEVLDEQEGKDEQLTLITCDDYNEETGVWETRKIFVATEVK
[4]
  activity against LPETG: completely abrogated activity against LPETG (SEQ ID NO: 32)
[5]
  activity against LPESG: activity against LPESG (SEQ ID NO: 38) comparable to the starting type pentamutant
  altered substrate specificity, LPESG against LPETG, as determined by Kcat/Km (HPLC-based substrate cleavage assay): remarkably altered substrate specificity (>4000-fold, as determined by Kcat/Km)

B13: optimized variant 4S.12.2 (protein)
chain: QAKPQIPKDKSKVAGYIEIPDADIKEPVYPGPATREQLSRGVSFTEENESLDDQNISITGHTSIGRPNYQFTNLRAAKKGSMVYFKVGNETRKYKMTSIRNVKPTAVEVLDEQEGKDEQLTLITCDDYNEETGVWETRKIFVATEVK
[4]
  activity against LPETG: completely abrogated activity against LPETG (SEQ ID NO: 32)
[5]
  activity against LPESG: activity against LPESG (SEQ ID NO: 38) comparable to the starting type pentamutant
